From article PMC1238745 (2005)

How the values were obtained:
Experiment in all cases: NMR
Bad BH3 peptide BH3 = target: T1, Bad BH3 peptide BH3 (Homo sapiens, UniProt Q92934)
T1 chain: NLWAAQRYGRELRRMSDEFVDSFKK

Bak BH3 peptide BH3 = target: T2, Bak BH3 peptide BH3 (Homo sapiens, UniProt Q16611)
T2 chain: GQVGRQLAIIGDDINR

Bax BH3 peptide BH3 = target: T3, Bax BH3 peptide BH3 (Homo sapiens, UniProt Q07812)
T3 chain: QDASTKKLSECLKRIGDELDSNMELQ

B1: v-Bcl-2 (protein)
chain: MSHKKSGTYWATLITAFLKTVSKVEELDCVDSAVLVDVSKIITLTQEFRRHYDSVYRADYGPALKNWKRDLSKLFTSLFVDVINSGRIVGFFDVGRYVCEEVLCPGSWTEDHELLNDCMTHFFIENNLMNHFPLEDIFLAQRKFQTTGFTFLLHALAKVLPRIYSGNVIYV
Kd (Bad BH3 peptide BH3): > 300 µM | Kd (Bak BH3 peptide BH3): < 5 µM | Kd (Bax BH3 peptide BH3): < 5 µM
